Experimental data as given in patent US6001988, “High affinity nucleic acid ligands to lectins” (NeXstar Pharmaceuticals, Inc.).

Tests used:
[1] = target: T1, L-selectin (LS-Rg) (Homo sapiens, UniProt P14151 P14151:39-332); experiment: filter; room temp; 6.8 nM at 37 C; conditions: tags: human IgG2 Fc fusion (provided by A. Varki); label: 32P; hairpin
T1 chain: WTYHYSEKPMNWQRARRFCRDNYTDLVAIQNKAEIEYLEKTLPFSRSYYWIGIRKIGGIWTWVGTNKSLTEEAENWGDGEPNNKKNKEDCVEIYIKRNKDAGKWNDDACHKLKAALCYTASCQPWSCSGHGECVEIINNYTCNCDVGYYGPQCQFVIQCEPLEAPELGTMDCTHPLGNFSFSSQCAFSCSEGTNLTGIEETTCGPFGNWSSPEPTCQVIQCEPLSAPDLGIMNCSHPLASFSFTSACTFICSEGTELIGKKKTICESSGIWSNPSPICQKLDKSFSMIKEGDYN

[2] = target: T2, P-selectin (PS-Rg) (Homo sapiens, UniProt P16109 P16109:42-321); experiment: filter; room temp, Ca/Mg buffer; conditions: tags: lectin, EGF and first two CRD domains fused to human IgG1 Fc (provided by A. Varki); chain copies: 2 (dimeric Fc chimera, inferred)
T2 chain: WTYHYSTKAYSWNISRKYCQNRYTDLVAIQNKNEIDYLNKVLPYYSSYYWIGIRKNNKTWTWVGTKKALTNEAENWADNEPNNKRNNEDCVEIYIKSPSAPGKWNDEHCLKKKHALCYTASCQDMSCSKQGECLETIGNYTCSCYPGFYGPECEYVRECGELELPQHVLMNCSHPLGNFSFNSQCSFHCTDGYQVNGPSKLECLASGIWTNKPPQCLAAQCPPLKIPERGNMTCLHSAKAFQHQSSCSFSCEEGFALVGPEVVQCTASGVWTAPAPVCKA
Method: (§1) RNA was reverse transcribed into cDNA by AMV reverse transcriptase at 48° C. for 60 min in 50 mM Tris-Cl pH (8.3), 60 mM NaCl, 6 mM Mg(OAc)_2, 10 mM DTT, 100 pmol DNA primer, 0.4 mM each of dNTPs, and 0.4 unit/µl AMV RT. […] C) Nitrocellulose Filter Partitioning As described in SELEX Patent Applications, the nitrocellulose filter partitioning method was used to determine the affinity of RNA ligands for WGA and for other proteins. Filter discs (nitrocellulose/cellulose acetate mixed matrix, 0.45 µm pore size, Millipore; or pure nitrocellulose, 0.45 µm pore size, Bio-Rad) were placed on a vacuum manifold and washed with 4 ml of HBSS buffer under vacuum. Reaction mixtures, containing ^32P labeled RNA pools and unlabeled WGA, were incubated in HBSS for 10 min at room temperature, filtered, and then immediately washed with 4 ml HBSS. The filters were air-dried and counted in a Beckman LS6500 liquid scintillation counter without fluor. WGA is a homodimer, molecular weight 43.2 kD, with 4 GlcNAc binding sites per dimer. For affinity calculations, we assume one RNA ligand binding site per monomer (two per dimer). The monomer concentration is defined as 2 times the dimer concentration. The equilibrium dissociation constant, K_d, for an RNA pool or specific ligand that binds monophasically is given by the equation $$K_d=[P_f][R_f]/[RP]$$
(§2) The affinity of representative cloned ligands for LS-Rg, ES-Rg, PS-Rg, CD22β-Rg and WGA was determined by nitrocellulose partitioning and the results shown in Table XIV. The ligands are highly specific for L-selectin.
(§3) *Kds were determined at room temperature.

[3] = target: T3, E-selectin (ES-Rg) (Homo sapiens, UniProt P16581 P16581:22-556); experiment: filter; room temp, Ca/Mg buffer; conditions: tags: extracellular domain fused to human IgG1 Fc (provided by A. Varki); chain copies: 2 (dimeric Fc chimera, inferred)
T3 chain: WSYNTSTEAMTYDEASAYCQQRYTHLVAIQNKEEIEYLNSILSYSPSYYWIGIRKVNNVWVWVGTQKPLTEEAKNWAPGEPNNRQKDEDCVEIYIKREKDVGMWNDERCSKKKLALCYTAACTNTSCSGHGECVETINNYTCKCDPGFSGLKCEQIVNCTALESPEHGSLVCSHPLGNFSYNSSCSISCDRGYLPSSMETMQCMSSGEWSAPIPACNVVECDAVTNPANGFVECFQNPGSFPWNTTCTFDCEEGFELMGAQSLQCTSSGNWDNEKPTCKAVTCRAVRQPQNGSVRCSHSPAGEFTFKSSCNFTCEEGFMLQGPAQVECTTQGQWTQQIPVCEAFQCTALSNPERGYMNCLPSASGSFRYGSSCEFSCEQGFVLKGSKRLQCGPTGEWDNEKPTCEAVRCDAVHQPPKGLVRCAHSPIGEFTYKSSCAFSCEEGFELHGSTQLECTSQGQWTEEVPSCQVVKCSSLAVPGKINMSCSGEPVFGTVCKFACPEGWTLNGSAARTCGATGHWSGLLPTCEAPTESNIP
Method: as §1, §2, §3

[4] = target: T1, L-selectin (LS-Rg); experiment: filter; room temp; 6.0 nM at 37 C; conditions: tags: human IgG2 Fc fusion (provided by A. Varki); label: 32P
[5] = target: T1, L-selectin (LS-Rg); experiment: filter; room temp; 23.2 nM at 37 C; conditions: tags: human IgG2 Fc fusion (provided by A. Varki); label: 32P; hairpin
[6] = target: T4, Ulex europaeus lectin UEA-II (Ulex europaeus, UniProt P22973 P22973:1-249); experiment: filter; HBSS, room temp; conditions: tags: E Y Laboratories; label: 32P
T4 sequence: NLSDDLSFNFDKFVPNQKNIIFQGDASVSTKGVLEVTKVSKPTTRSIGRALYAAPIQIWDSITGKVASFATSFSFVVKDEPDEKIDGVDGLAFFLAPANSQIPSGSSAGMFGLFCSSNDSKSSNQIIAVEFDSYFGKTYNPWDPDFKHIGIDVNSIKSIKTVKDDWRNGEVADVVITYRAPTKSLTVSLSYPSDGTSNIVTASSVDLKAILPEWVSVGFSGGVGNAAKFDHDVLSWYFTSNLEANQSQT
Method: as §1, with “The specifically eluted fraction was processed for use in the following round. Fractions eluted from immobilized WGA were heated at 90° C. for 5 minutes in 1% SDS, 2% β-mercaptoethanol and extracted with phenol/chloroform. RNA was” for “RNA was”, “per dimer). […]” for “per dimer). The monomer concentration is defined as 2 times the dimer concentration. The equilibrium dissociation constant, K_d, for an RNA pool or specific ligand that binds monophasically is given by the equation $$K_d=[P_f][R_f]/[RP]$$”

[7] = target: T5, wheat germ agglutinin (WGA) (Triticum vulgare, UniProt P10968 P10968:27-197); experiment: filter; HBSS, room temp; printed as 11.2, SEQ 40; conditions: tags: free lectin, E Y Laboratories; label: 32P
T5 sequence: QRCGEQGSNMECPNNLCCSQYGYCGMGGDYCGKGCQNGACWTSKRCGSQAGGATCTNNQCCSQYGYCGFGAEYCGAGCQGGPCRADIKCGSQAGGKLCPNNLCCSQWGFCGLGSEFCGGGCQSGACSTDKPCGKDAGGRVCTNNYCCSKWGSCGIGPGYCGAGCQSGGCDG
Method: The specifically eluted fraction was processed for use in the following round. Fractions eluted from immobilized WGA were heated at 90° C. for 5 minutes in 1% SDS, 2% β-mercaptoethanol and extracted with phenol/chloroform. RNA was reverse transcribed into cDNA by AMV reverse transcriptase at 48° C. for 60 min in 50 mM Tris-Cl pH (8.3), 60 mM NaCl, 6 mM Mg(OAc)_2, 10 mM DTT, 100 pmol DNA primer, 0.4 mM each of dNTPs, and 0.4 unit/µl AMV RT. […] C) Nitrocellulose Filter Partitioning As described in SELEX Patent Applications, the nitrocellulose filter partitioning method was used to determine the affinity of RNA ligands for WGA and for other proteins. Filter discs (nitrocellulose/cellulose acetate mixed matrix, 0.45 µm pore size, Millipore; or pure nitrocellulose, 0.45 µm pore size, Bio-Rad) were placed on a vacuum manifold and washed with 4 ml of HBSS buffer under vacuum. Reaction mixtures, containing ^32P labeled RNA pools and unlabeled WGA, were incubated in HBSS for 10 min at room temperature, filtered, and then immediately washed with 4 ml HBSS. The filters were air-dried and counted in a Beckman LS6500 liquid scintillation counter without fluor. […]
The dissociation constants for representative members of families 1–9 and orphan ligands were determined by nitrocellulose filter binding experiments and are listed in Table III. […]

[8] = target: T1, L-selectin (LS-Rg); experiment: filter; room temp; 11.8 nM at 37 C; conditions: tags: human IgG2 Fc fusion (provided by A. Varki); label: 32P; hairpin
[9] = target: T1, L-selectin (LS-Rg); experiment: filter; room temp; 590 pM at 37 C; conditions: tags: human IgG2 Fc fusion (provided by A. Varki); label: 32P; hairpin
[10] = target: T1, L-selectin (LS-Rg); experiment: filter; room temp; 0.65 nM at 37 C; conditions: tags: human IgG2 Fc fusion (provided by A. Varki); label: 32P; hairpin
[11] = target: T1, L-selectin (LS-Rg); experiment: filter; apparently 37 C column; synthetic full-length 201 control 3.8 nM; conditions: tags: human IgG2 Fc fusion (provided by A. Varki); label: 32P; hairpin
[12] = target: T1, L-selectin (LS-Rg); experiment: filter; room temp; 1.8 nM at 37 C; conditions: tags: human IgG2 Fc fusion (provided by A. Varki), label: 32P
[13] = target: T1, L-selectin (LS-Rg); experiment: filter; room temp; 9.6 nM at 37 C; conditions: tags: human IgG2 Fc fusion (provided by A. Varki); label: 32P
[14] = target: T1, L-selectin (LS-Rg); experiment: filter; room temp; 8.4 nM at 37 C; conditions: tags: human IgG2 Fc fusion (provided by A. Varki); label: 32P
[15] = target: T1, L-selectin (LS-Rg); experiment: filter; room temp; 8.8 nM at 37 C; conditions: tags: human IgG2 Fc fusion (provided by A. Varki); label: 32P; hairpin

B1: 139 (ssDNA)
DNA: CTACCTACGATCTGACTAGCGGACAAGGCACTCGACGTAGTTTATAACTCCCTCCGGGCCGCTTACTCTCATGTAGTTCC
**Q.** How did the Kd [1] turn out when B1 was run?
**A.** Its Kd is 0.21 nM.

B2: 206 (ssDNA)
DNA: CTACCTACGATCTGACTAGCAGCGTTGTACGGGGTTACACACAACGATTTAGATGCTCTGCTTACTCTCATGTAGTTCC
**Q.** Which Kd [2] does the source give for B2 here?
**A.** Its Kd is 600 nM.

**Q.** What about the Kd [3] of the same binder?
**A.** Its Kd is 100 nM.

**Q.** And the Kd [4]?
**A.** The Kd was 0.33 nM.

B3: 112 (ssDNA)
DNA: CTACCTACGATCTGACTAGCCGCATCCACATAGTTCAAGGGGCTACACGAAATATTGCAGCTTACTCTCATGTAGTTCC
**Q.** How did the Kd [5] turn out when B3 was run?
**A.** The Kd was 0.3 nM.

B4: 11.20 (ssRNA)
RNA: GGGAAAAGCGAAUCAUACACAAGAUUGGUCGUACUGGACAGAGCCGUGGUAGAGGGAUUGGGACAAAGUGUCAGCUCCGCCAGAGACCAACCGAGAA
modifications: 2'-NH2 all C and U
**Q.** What does the source list for B4?
**A.** Kd [6]: 2200 nM; Kd [7]: 1.4 nM

B5: 111 (ssDNA)
DNA: CTACCTACGATCTGACTAGCTACACAAGGTGCTAAACGTAGAGCCAGATCGGATCTGAGCGCTTACTCTCATGTAGTTCC
**Q.** Which Kd [2] does the source give for B5 here?
**A.** Its Kd is 840 nM.

**Q.** And the Kd [3]?
**A.** The Kd was 1200 nM.

**Q.** What about the Kd [8] of the same binder?
**A.** Its Kd is 0.33 nM.

B6: 179 (ssDNA)
DNA: CTACCTACGATCTGACTAGCCACATGCCTGACGCGGTACAAGGCCTGGACGTAACGTTGGCTTACTCTCATGTAGTTCC
**Q.** How did the Kd [9] turn out when B6 was run?
**A.** The Kd was 0.18 nM.

B7: 137 (ssDNA)
DNA: CTACCTACGATCTGACTAGCTACCCCTTGGGCCTCATAGACAAGGTCTTAAACGTTAGCGCTTACTCTCATGTAGTTCC
**Q.** With B7 as the binder, how does the Kd [10] read?
**A.** The Kd was 0.52 nM.

**Q.** For GTAACCAGTACAAGGTGCTAAACGTAATGGCTTCGGCTTAC (ssDNA) [201T3 (41-mer)], which Kd [11] is on record?
**A.** Its Kd is 43 nM.

B8: 128 (ssDNA)
DNA: CTACCTACGATCTGACTAGCAGGACCAAGGTGTTAAACGGCTCCCCTGGCTATGCCTCTTGCTTACTCTCATGTAGTTCC
**Q.** With B8 as the binder, how does the Kd ([12]; hairpin) read?
**A.** The Kd was 0.31 nM.

B9: 109 (ssDNA)
DNA: CTACCTACGATCTGACTAGCCCACCGTGATGCACGATACATGAGGGTGTGTCAGCGCATGCTTACTCTCATGTAGTTCC
**Q.** How did the Kd [13] turn out when B9 was run?
**A.** Its Kd is 0.19 nM.

B10: 214 (ssDNA)
DNA: CTACCTACGATCTGACTAGCTGATGCGACTTTAGTCGAACGTTACTGGGGCTCAGAGGACAGCTTACTCTCATGTAGTTCC
**Q.** For B10, which Kd [14] is on record?
**A.** The Kd was 0.66 nM.

**Q.** With TAGCCAAGGTAACCAGTACAAGGTGCTAAACGTAATGGCTTCGGCTTAC (ssDNA) [201T1 (49-mer)] as the binder, how does the Kd [11] read?
**A.** The Kd was 4.8 nM.

B11: 145 (ssDNA)
DNA: CTACCTACGATCTGACTAGCCCCCGAAGAACATTTTACAAGGTGCTAAACGTAAAATCAGGCTTACTCTCATGTAGTTCC
**Q.** For B11, which Kd [15] is on record?
**A.** Its Kd is 0.92 nM.

B12: 181 (ssDNA)
DNA: CTACCTACGATCTGACTAGCCATCAAGGACTTTGCCCGAAACCCTAGGTTCACGTGTGGGGCTTACTCTCATGTAGTTCC
**Q.** What does the source list for B12?
**A.** Kd [2]: 1600 nM; Kd [3]: 37 nM; Kd [12]: 0.084 nM
